From patent publication US20260028418A1 (GC CELL, published 2026)

Experiments:
HER2-ECD-Fc [1] = target: T1, HER2-ECD-Fc (human, UniProt P04626 23-652); experiment: ELISA on HER2-ECD-Fc; antibody at 5 µg/mL
T1 construct: extracellular domain; Produced in FreeStyle 293F cells; also called HER2-ECD Fc fusion protein

HER2-ECD-Fc [2] = target: T1, HER2-ECD-Fc; experiment: ELISA on HER2-ECD-Fc; antibody at 50 µg/mL
HER2-ECD-Fc [3] = target: T1, HER2-ECD-Fc; experiment: ELISA on HER2-ECD-Fc; antibody at 5 × 10^-1 µg/mL
HER2-ECD-Fc [4] = target: T1, HER2-ECD-Fc; experiment: ELISA on HER2-ECD-Fc; antibody at 5 × 10^-2 µg/mL
HER2-ECD-Fc [5] = target: T1, HER2-ECD-Fc; experiment: ELISA on HER2-ECD-Fc; antibody at 5 × 10^-3 µg/mL
HER2-ECD-Fc [6] = target: T1, HER2-ECD-Fc; experiment: ELISA on HER2-ECD-Fc; antibody at 5 × 10^-4 µg/mL
HER2-ECD-Fc [7] = target: T1, HER2-ECD-Fc; experiment: ELISA on HER2-ECD-Fc; antibody at 5 × 10^-5 µg/mL
HER2-ECD-Fc [8] = target: T1, HER2-ECD-Fc; experiment: ELISA on HER2-ECD-Fc; antibody at 5 × 10^-6 µg/mL
HER2-ECD-Fc [9] = target: T1, HER2-ECD-Fc; experiment: ELISA on HER2-ECD-Fc; antibody at 5 × 10^-7 µg/mL
EGFR-ECD-Fc = target: T2, EGFR-ECD-Fc (human, UniProt P00533 25-645); experiment: ELISA on ErbB family extracellular domains, Absorbance at 450 nm; antibody concentration not given
T2 construct: extracellular domain; also called extracellular domain of EGFR; not shown: Hinge and Fc region (CH2-CH3) of human IgG1; The protein was produced in the same manner as HER2-ECD-Fc
Description: (§1) It was investigated whether the developed five antibodies of the present disclosure specifically bind to HER2 belonging to the ErbB family proteins by ELISA.

[10] = target: T3, HER3 (R&D Systems, #348-RB-050) (human, UniProt P21860 20-643); experiment: as above
T3 construct: extracellular domain; Bought
Description: as §1

[11] = target: T4, HER4 (R&D Systems, #1131-ER-050) (human, UniProt Q15303 26-651); experiment: as above
T4 construct: extracellular domain; Bought
T4 sequence (looked up): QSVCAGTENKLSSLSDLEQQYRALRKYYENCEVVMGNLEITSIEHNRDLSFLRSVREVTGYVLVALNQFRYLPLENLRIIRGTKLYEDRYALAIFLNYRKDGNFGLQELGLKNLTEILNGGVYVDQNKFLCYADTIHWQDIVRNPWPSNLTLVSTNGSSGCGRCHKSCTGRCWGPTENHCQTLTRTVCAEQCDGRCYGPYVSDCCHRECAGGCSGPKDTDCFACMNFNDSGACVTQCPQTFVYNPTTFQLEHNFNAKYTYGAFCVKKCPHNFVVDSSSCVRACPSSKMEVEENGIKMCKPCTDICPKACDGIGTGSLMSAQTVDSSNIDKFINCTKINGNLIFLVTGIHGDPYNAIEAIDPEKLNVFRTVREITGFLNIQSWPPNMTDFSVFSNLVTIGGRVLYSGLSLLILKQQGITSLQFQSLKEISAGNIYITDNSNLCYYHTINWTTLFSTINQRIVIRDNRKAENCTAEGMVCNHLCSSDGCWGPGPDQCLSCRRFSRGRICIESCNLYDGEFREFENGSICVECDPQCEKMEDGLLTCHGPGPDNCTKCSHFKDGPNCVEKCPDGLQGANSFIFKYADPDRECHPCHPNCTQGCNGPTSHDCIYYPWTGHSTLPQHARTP
Description: as §1

HER2-ECD DI Fc = target: T5, HER2-ECD DI Fc (human, UniProt P04626 23-217, limits assumed); experiment: ELISA on plate-coated HER2 domain-Fc fusion (1 µg/mL), anti-human IgG-HRP, Abs 450 nm; antibody concentration not given
T5 construct: domain: domain 1; also called domain 1 of the extracellular domains of the HER2 protein; not shown: Hinge and Fc region (CH2-CH3) of human IgG1, at the C-terminus
Method: (§2) The HER2-ECD DI Fc, HER2-ECD DII Fc, HER2-ECD DIII Fc, HER2-ECD DIV Fc and HER2-ECD Fc fusion proteins were immobilized at 4° C. overnight onto a Costar 96-well plate (Corning, Cat. No. 3590) at a concentration of 1 μg/mL […]. The resultant was washed 3 times with TBS-T (0.05% Triton X-100) and then blocked at room temperature for 1 hour with 100 μL of TBS-T/BSA (5% BSA). After washing the blocked plate 3 times and adding the anti-HER2 antibody, the antibody was allowed to bind at room temperature for 1 hour. After washing 3 times and then adding anti-human IgG-HRP diluted to 1:3,000 in TBS-T/BSA, as a secondary antibody, the antibody was allowed to bind at room temperature for 1 hour. After washing the resultant 3 times and adding TMB (SurModics, Cat. No. TMBC-1000-01), the mixture was allowed to develop color at room temperature for 5 minutes. Then, the color development was stopped by adding 1 N sulfuric acid (DukSan, Cat. No. 254). Absorbance was measured at 450 nm using Victor X3 (PerkinElmer, Cat. No. 2030-0030).

HER2-ECD DIII Fc = target: T6, HER2-ECD DIII Fc (human, UniProt P04626 342-510, limits assumed); experiment: as above
T6 construct: domain: domain 3; also called domain 3 of the extracellular domains of the HER2 protein; not shown: Hinge and Fc region (CH2-CH3) of human IgG1, at the C-terminus
Method: as §2

absorbance (HER2-ECD-Fc [1]): 2.9
absorbance (HER2-ECD-Fc [2]): 2.74
absorbance (HER2-ECD-Fc [3]): 2.94
absorbance (HER2-ECD-Fc [4]): 2.72
absorbance (HER2-ECD-Fc [5]): 1.67
absorbance (HER2-ECD-Fc [6]): 0.34
absorbance (HER2-ECD-Fc [7]): 0.14
absorbance (HER2-ECD-Fc [8]): 0.12
absorbance (HER2-ECD-Fc [9]): 0.12
binding result (EGFR-ECD-Fc): no binding
binding result [10]: no binding
binding result [11]: no binding
binding result (HER2-ECD DI Fc): no binding
binding result (HER2-ECD DIII Fc): no binding
B1: hz8G11 (antibody, V domains shown)
VH: QVQLVQSGQEVKKPGASVKVSCKASGYSFTGYYMHWVRQAPGQGLEWIGHINPNNGGTSYNQKFKGRTTLTVDKSISTAYMELSRLRSDDTAVYYCAREEAFAYWGQGTLVTVSS
VL: DIQMTQSPSSLSASVGDRVTISCRASQDISNYLNWYQQKPGKAPKLLIYYTSRLHSGVPSRFSGSGSGTDFSLTISSLQPEDIATYYCQQGITPPWTFGGGTKVEIK
notes: Humanized antibody, detected with anti-human IgG-HRP; also called humanized 8G11 antibody
